From the supplement of paper PMC10724198

How the values were obtained:
Saccharomyces cerevisiae [1] = assay: protein stability index of tFT-peptide fusion in wild type (PSI (0-1 scale)); higher = more stable (slower turnover); details: genetic background: wild type
Protocol: (§1)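 MPS profiling in S. cerevisiae of two library types built from selected 12-aa C-degron peptides (IN1, IN2, LN1, LN3, VN2, R1-R5, W1-W3, Atg1 and Rpa12 C-termini): saturation mutagenesis libraries and C-terminal +1 capping libraries (13 aa). Each peptide is fused to the C-terminus of a sfGFP-mCherry timer, after a GGGS linker. Cells are FACS-sorted into 8 mCherry/sfGFP bins and sequenced. PSI runs from 0 (unstable) to 1 (stable), measured once in wild type and in the das1Δ or doa10Δ background.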

Saccharomyces cerevisiae [2] = assay: protein stability index of tFT-peptide fusion in deletion strain of DAS1 (PSI (0-1 scale)); higher = more stable (slower turnover)
Protocol: as §1
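For protein stability index of tFT-peptide fusion in deletion strain of DAS1 in this document: PSI is a weighted mean of each variant's read distribution over the sorted stability bins, computed only for variants having over 10 reads in total.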
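For protein stability index of tFT-peptide fusion in wild type in this document: PSI derived as read-weighted mean over the 8 sorting bins, only variants exceeding 10 total reads kept, mCherry placed adjacent to the peptide and sfGFP distal.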

Row | Sequence | protein stability index (Saccharomyces cerevisiae [1]) | protein stability index (Saccharomyces cerevisiae [2])
1 | VRGAVGGWWLVG | 0.455 | 0.669
2 | PSLAPSFWRVVG | 0.136 | 0.682
3 | FKMRWTFRYWVN | 0.119 | 0.735
4 | RLIQYLPVQFLN | 0.0219 | 0.637
5 | LVVYLSCVACINR | 0.0215 | 0.034
6 | LVVYLSCVNCIN | 0.135 | 0.419
7 | FSMRWTFVYWVN | 0.0513 | 0.327
8 | KKHKKWQKQKIN | 0.0352 | 0.585
9 | PSLAASFWRLVG | 0.135 | 0.688
10 | RLIQPWPVQFLN | 0.0573 | 0.545
11 | PDKNNHLIKLLN | 0.242 | 0.757
12 | PDKTNHLIKLLN | 0.144 | 0.658
13 | LVVYLSCVACIK | 0.0121 | 0.0213
14 | VRGAVGGWRLVGW | 0.666 | 0.668
15 | RLVQPLPVQFLN | 0.0538 | 0.628
16 | LMILRQKMNHQN | 0.166 | 0.676
17 | KKHNKGQKQKIN | 0.0428 | 0.645
18 | KKHKKGQKQQIN | 0.404 | 0.554
19 | PILAASFWRVVG | 0.145 | 0.678
20 | KKHKKGSKQKIN | 0.0787 | 0.673
21 | PMKRNHLIKLLN | 0.069 | 0.569
22 | PSLAASFMRVVG | 0.531 | 0.681
23 | PDSRNHLIKLLN | 0.125 | 0.6

Row | Sequence | protein stability index (Saccharomyces cerevisiae [1]) | protein stability index (Saccharomyces cerevisiae [2])
24 | MTSCGYKFRTNN | 0.212 | 0.688
25 | CTSCGYKFRTNNL | 0.723 | 0.715
26 | RLIQPLHVQFLN | 0.054 | 0.61
27 | KKHVKGQKQKIN | 0.0752 | 0.606
28 | GKILRQKMNHQN | 0.263 | 0.677
29 | CKHKKGQKQKIN | 0.0815 | 0.568
30 | RLIHPLPVQFLN | 0.0474 | 0.616
31 | ARWRVGLWMGAS | 0.622 | 0.667
32 | PSNAASFWRVVG | 0.162 | 0.686
33 | AQWRVGLWRGAS | 0.499 | 0.709
34 | LKILRQKANHQN | 0.373 | 0.688
35 | PDKRNHLIKLTN | 0.292 | 0.568
36 | LKILRQKMVHQN | 0.19 | 0.657
37 | FSMRWVFRYWVN | 0.077 | 0.495
38 | LKILRQKMNFQN | 0.225 | 0.674
39 | ARWRVGLWRGAG | 0.254 | 0.64
40 | PDKRNHLIKLHN | 0.359 | 0.593
41 | PDKRNHLIKLLH | 0.154 | 0.612
42 | FSMRMTFRYWVN | 0.0474 | 0.464
43 | LKMLRQKMNHQN | 0.171 | 0.683
44 | KKHKGGQKQKIN | 0.0809 | 0.584
45 | ARWRVGLWRGDS | 0.667 | 0.688
46 | EKHKKGQKQKIN | 0.178 | 0.613

Row | Sequence | protein stability index (Saccharomyces cerevisiae [1]) | protein stability index (Saccharomyces cerevisiae [2])
47 | LKILRQKMNHQNV | 0.669 | 0.662
48 | ARWRVGLWRGASL | 0.719 | 0.715
49 | PSLAAEFWRVVG | 0.168 | 0.697
50 | LVVYLSCVACINW | 0.0246 | 0.0403
51 | FSMRWTFRNWVN | 0.0567 | 0.589
52 | RLIQILPVQFLN | 0.0377 | 0.546
53 | ARWRVGCWRGAS | 0.524 | 0.637
54 | HRWRVGLWRGAS | 0.457 | 0.676
55 | KKHKKIQKQKIN | 0.0571 | 0.631
56 | CTSCGHKFRTNN | 0.256 | 0.706
57 | ARWRVGDWRGAS | 0.665 | 0.714
58 | LVVYLSCVACIL | 0.0189 | 0.032
59 | CTSCGYKFRTGN | 0.581 | 0.701
60 | PSLAASFWRVQG | 0.155 | 0.672
61 | VRGAVGGWRWVG | 0.144 | 0.682
62 | RLIQPLAVQFLN | 0.0616 | 0.6
63 | VRGQVGGWRLVG | 0.147 | 0.677
64 | LVVYLSCYACIN | 0.0136 | 0.0478
65 | PSLAASFWRVVY | 0.636 | 0.682
66 | ARWWVGLWRGAS | 0.508 | 0.742
67 | PDRRNHLIKLLN | 0.118 | 0.664
68 | RLINPLPVQFLN | 0.0773 | 0.668
69 | FSMRWTFGYWVN | 0.0637 | 0.404

Row | Sequence | protein stability index (Saccharomyces cerevisiae [1]) | protein stability index (Saccharomyces cerevisiae [2])
70 | LVVYLSCVAPIN | 0.457 | 0.449
71 | FSHRWTFRYWVN | 0.0512 | 0.568
72 | CTSCGYKFLTNN | 0.332 | 0.696
73 | FSMRWTFMYWVN | 0.0968 | 0.456
74 | PDKRNHLIKLLNI | 0.216 | 0.662
75 | ARWRVGLWRVAS | 0.0841 | 0.67
76 | PDKRNHLIKLLT | 0.205 | 0.622
77 | PDKDNHLIKLLN | 0.281 | 0.568
78 | IRWRVGLWRGAS | 0.163 | 0.707
79 | LKILRQKMNHQY | 0.274 | 0.684
80 | PYKRNHLIKLLN | 0.141 | 0.6
81 | LVHYLSCVACIN | 0.0263 | 0.188
82 | PHKRNHLIKLLN | 0.141 | 0.694
83 | FLMRWTFRYWVN | 0.0449 | 0.342
84 | PKKRNHLIKLLN | 0.149 | 0.596
85 | LVVYLSCVYCIN | 0.0441 | 0.158
86 | FSMRWTFRLWVN | 0.028 | 0.291
87 | CTMCGYKFRTNN | 0.236 | 0.69
88 | VRGAVGAWRLVG | 0.144 | 0.704
89 | PSLAASFWRVVN | 0.133 | 0.67
